Source: the Human Domainome abundance scans (Beltran et al. 2025)
± gives the uncertainty stated by the source.

B1: Gamma-crystallin S, residues 96 to 176; numbered along this chain, P22914 (parent)
chain: IQIFEKGDFSGQMYETTEDCPSIMEQFHMREIHSCKVLEGVWIFYELPNYRGRQYLLDKKEYRKPIDWGAASPAVQSFRRI

Variants of: B1
Assay: abundance fitness (aPCA) (normalised: wild type 0, dead -1); higher = more abundant; growth selection in yeast, the domain comes from the species named
Conditions: Homo sapiens

Variant | abundance fitness
IQIFEKGDFSGQMYETTEDHPSIMEQFHMREIHSCKVLEGVWIFYELPNYRGRQYLLDKKEYRKPIDWGAASPAVQSFRRI [C20H] | -0.398 ± 0.19
IQIFEKGDFSGQMYETTEDFPSIMEQFHMREIHSCKVLEGVWIFYELPNYRGRQYLLDKKEYRKPIDWGAASPAVQSFRRI [C20F] | -0.222 ± 0.077
IQIFEKGDFSGQMYETTEDEPSIMEQFHMREIHSCKVLEGVWIFYELPNYRGRQYLLDKKEYRKPIDWGAASPAVQSFRRI [C20E] | -0.144 ± 0.072
IQIFEKGDFSGQMYETTEDGPSIMEQFHMREIHSCKVLEGVWIFYELPNYRGRQYLLDKKEYRKPIDWGAASPAVQSFRRI [C20G] | -0.352 ± 0.053
IQIFEKGDFSGQMYETTEDDPSIMEQFHMREIHSCKVLEGVWIFYELPNYRGRQYLLDKKEYRKPIDWGAASPAVQSFRRI [C20D] | -0.754 ± 0.24
IQIFEKGDFSGQMYETTEDKPSIMEQFHMREIHSCKVLEGVWIFYELPNYRGRQYLLDKKEYRKPIDWGAASPAVQSFRRI [C20K] | -0.027 ± 0.072
IQIFEKGDFSGQMYETTEDAPSIMEQFHMREIHSCKVLEGVWIFYELPNYRGRQYLLDKKEYRKPIDWGAASPAVQSFRRI [C20A] | -0.004 ± 0.057
IQIFEKGDFSGQMYETTEDIPSIMEQFHMREIHSCKVLEGVWIFYELPNYRGRQYLLDKKEYRKPIDWGAASPAVQSFRRI [C20I] | 0.023 ± 0.15
IQIFEKGDFSGQMYEQTEDCPSIMEQFHMREIHSCKVLEGVWIFYELPNYRGRQYLLDKKEYRKPIDWGAASPAVQSFRRI [T16Q] | -0.108 ± 0.13
IQIFEKGDFSGQMYEVTEDCPSIMEQFHMREIHSCKVLEGVWIFYELPNYRGRQYLLDKKEYRKPIDWGAASPAVQSFRRI [T16V] | -0.035 ± 0.057
IQIFEKGDFSGQMYEYTEDCPSIMEQFHMREIHSCKVLEGVWIFYELPNYRGRQYLLDKKEYRKPIDWGAASPAVQSFRRI [T16Y] | 0.018 ± 0.085
IQIFEKGDFSGQMYERTEDCPSIMEQFHMREIHSCKVLEGVWIFYELPNYRGRQYLLDKKEYRKPIDWGAASPAVQSFRRI [T16R] | 0.003 ± 0.057
IQIFEKGDFSGQMYEWTEDCPSIMEQFHMREIHSCKVLEGVWIFYELPNYRGRQYLLDKKEYRKPIDWGAASPAVQSFRRI [T16W] | 0.078 ± 0.091
IQIFEKGDFSGQMYETQEDCPSIMEQFHMREIHSCKVLEGVWIFYELPNYRGRQYLLDKKEYRKPIDWGAASPAVQSFRRI [T17Q] | -0.005 ± 0.082
IQIFEKGDFSGQMYETWEDCPSIMEQFHMREIHSCKVLEGVWIFYELPNYRGRQYLLDKKEYRKPIDWGAASPAVQSFRRI [T17W] | 0.021 ± 0.079
IQIFEKGDFSGQMYETVEDCPSIMEQFHMREIHSCKVLEGVWIFYELPNYRGRQYLLDKKEYRKPIDWGAASPAVQSFRRI [T17V] | -0.031 ± 0.049
IQIFEKGDFSGQMYETMEDCPSIMEQFHMREIHSCKVLEGVWIFYELPNYRGRQYLLDKKEYRKPIDWGAASPAVQSFRRI [T17M] | -0.059 ± 0.09
IQIFEKGDFSGQMYETYEDCPSIMEQFHMREIHSCKVLEGVWIFYELPNYRGRQYLLDKKEYRKPIDWGAASPAVQSFRRI [T17Y] | -0.352 ± 0.17
IQIFEKGDFSGQMYETREDCPSIMEQFHMREIHSCKVLEGVWIFYELPNYRGRQYLLDKKEYRKPIDWGAASPAVQSFRRI [T17R] | -0.012 ± 0.05
IQIFEKGDFSGQMYETGEDCPSIMEQFHMREIHSCKVLEGVWIFYELPNYRGRQYLLDKKEYRKPIDWGAASPAVQSFRRI [T17G] | -0.013 ± 0.049
IQIFEKGDFSGQMYETAEDCPSIMEQFHMREIHSCKVLEGVWIFYELPNYRGRQYLLDKKEYRKPIDWGAASPAVQSFRRI [T17A] | 0.022 ± 0.053
IQIFEKGDFSGQMYETPEDCPSIMEQFHMREIHSCKVLEGVWIFYELPNYRGRQYLLDKKEYRKPIDWGAASPAVQSFRRI [T17P] | 0.075 ± 0.071
IQIFEKGDFSGQMYETEEDCPSIMEQFHMREIHSCKVLEGVWIFYELPNYRGRQYLLDKKEYRKPIDWGAASPAVQSFRRI [T17E] | -0.069 ± 0.11

Variant | abundance fitness
IQIFEKGDFSGQMYETKEDCPSIMEQFHMREIHSCKVLEGVWIFYELPNYRGRQYLLDKKEYRKPIDWGAASPAVQSFRRI [T17K] | 0.074 ± 0.13
IQIFEKGDFSGQMYETCEDCPSIMEQFHMREIHSCKVLEGVWIFYELPNYRGRQYLLDKKEYRKPIDWGAASPAVQSFRRI [T17C] | 0.027 ± 0.12
IQIFEKGDFSGQMYETFEDCPSIMEQFHMREIHSCKVLEGVWIFYELPNYRGRQYLLDKKEYRKPIDWGAASPAVQSFRRI [T17F] | -0.007 ± 0.1
IQIFEKGDFSGQMYETNEDCPSIMEQFHMREIHSCKVLEGVWIFYELPNYRGRQYLLDKKEYRKPIDWGAASPAVQSFRRI [T17N] | -0.02 ± 0.18
IQIFEKGDFSGQMYETLEDCPSIMEQFHMREIHSCKVLEGVWIFYELPNYRGRQYLLDKKEYRKPIDWGAASPAVQSFRRI [T17L] | 0.022 ± 0.056
IQIFEKGDFSGQMYETIEDCPSIMEQFHMREIHSCKVLEGVWIFYELPNYRGRQYLLDKKEYRKPIDWGAASPAVQSFRRI [T17I] | 0.037 ± 0.12
IQIFEKGDFSGQMYETSEDCPSIMEQFHMREIHSCKVLEGVWIFYELPNYRGRQYLLDKKEYRKPIDWGAASPAVQSFRRI [T17S] | -0.068 ± 0.062
IQIFEKGDFSGQMYETDEDCPSIMEQFHMREIHSCKVLEGVWIFYELPNYRGRQYLLDKKEYRKPIDWGAASPAVQSFRRI [T17D] | -0.051 ± 0.1
IQIFEKGDFSGQMYETTEGCPSIMEQFHMREIHSCKVLEGVWIFYELPNYRGRQYLLDKKEYRKPIDWGAASPAVQSFRRI [D19G] | -0.035 ± 0.05
IQIFEKGDFSGQMYETTERCPSIMEQFHMREIHSCKVLEGVWIFYELPNYRGRQYLLDKKEYRKPIDWGAASPAVQSFRRI [D19R] | -0.015 ± 0.068
IQIFEKGDFSGQMYETTEACPSIMEQFHMREIHSCKVLEGVWIFYELPNYRGRQYLLDKKEYRKPIDWGAASPAVQSFRRI [D19A] | -0.005 ± 0.057
IQIFEKGDFSGQMYETTEICPSIMEQFHMREIHSCKVLEGVWIFYELPNYRGRQYLLDKKEYRKPIDWGAASPAVQSFRRI [D19I] | -0.144 ± 0.087
IQIFEKGDFSGQMYETTEQCPSIMEQFHMREIHSCKVLEGVWIFYELPNYRGRQYLLDKKEYRKPIDWGAASPAVQSFRRI [D19Q] | 0.181 ± 0.12
IQIFEKGDFSGQMYETTEKCPSIMEQFHMREIHSCKVLEGVWIFYELPNYRGRQYLLDKKEYRKPIDWGAASPAVQSFRRI [D19K] | -0.114 ± 0.16
IQIFEKGDFSGQMYETTEVCPSIMEQFHMREIHSCKVLEGVWIFYELPNYRGRQYLLDKKEYRKPIDWGAASPAVQSFRRI [D19V] | -0.038 ± 0.04
IQIFEKGDFSGQMYETTENCPSIMEQFHMREIHSCKVLEGVWIFYELPNYRGRQYLLDKKEYRKPIDWGAASPAVQSFRRI [D19N] | -0.193 ± 0.17
IQIFEKGDFSGQMYETTEECPSIMEQFHMREIHSCKVLEGVWIFYELPNYRGRQYLLDKKEYRKPIDWGAASPAVQSFRRI [D19E] | -0.018 ± 0.081
IQIFEKGDFSGQMYETTELCPSIMEQFHMREIHSCKVLEGVWIFYELPNYRGRQYLLDKKEYRKPIDWGAASPAVQSFRRI [D19L] | -0.124 ± 0.076
IQIFEKGDFSGQMYETTEPCPSIMEQFHMREIHSCKVLEGVWIFYELPNYRGRQYLLDKKEYRKPIDWGAASPAVQSFRRI [D19P] | -0.237 ± 0.14
IQIFEKGDFSGQMYETTEYCPSIMEQFHMREIHSCKVLEGVWIFYELPNYRGRQYLLDKKEYRKPIDWGAASPAVQSFRRI [D19Y] | 0.009 ± 0.098
IQIFEKGDFSGQMYETTEHCPSIMEQFHMREIHSCKVLEGVWIFYELPNYRGRQYLLDKKEYRKPIDWGAASPAVQSFRRI [D19H] | 0.143 ± 0.22
IQIFEKGDFSGQMYETTECCPSIMEQFHMREIHSCKVLEGVWIFYELPNYRGRQYLLDKKEYRKPIDWGAASPAVQSFRRI [D19C] | -0.003 ± 0.086
IQIFEKGDFSGQMYETTEFCPSIMEQFHMREIHSCKVLEGVWIFYELPNYRGRQYLLDKKEYRKPIDWGAASPAVQSFRRI [D19F] | -0.116 ± 0.087

Variant | abundance fitness
IQIFEKGDFSGQMYETTEWCPSIMEQFHMREIHSCKVLEGVWIFYELPNYRGRQYLLDKKEYRKPIDWGAASPAVQSFRRI [D19W] | -0.024 ± 0.072
IQIFEKGDFSGQMYETTEMCPSIMEQFHMREIHSCKVLEGVWIFYELPNYRGRQYLLDKKEYRKPIDWGAASPAVQSFRRI [D19M] | -0.097 ± 0.091
IQIFEKGDFSGQMYETTETCPSIMEQFHMREIHSCKVLEGVWIFYELPNYRGRQYLLDKKEYRKPIDWGAASPAVQSFRRI [D19T] | -0.059 ± 0.077
IQIFEKGDFSGQMYETTQDCPSIMEQFHMREIHSCKVLEGVWIFYELPNYRGRQYLLDKKEYRKPIDWGAASPAVQSFRRI [E18Q] | 0.009 ± 0.11
IQIFEKGDFSGQMYETTKDCPSIMEQFHMREIHSCKVLEGVWIFYELPNYRGRQYLLDKKEYRKPIDWGAASPAVQSFRRI [E18K] | 0.017 ± 0.14
IQIFEKGDFSGQMYETTFDCPSIMEQFHMREIHSCKVLEGVWIFYELPNYRGRQYLLDKKEYRKPIDWGAASPAVQSFRRI [E18F] | -0.007 ± 0.12
IQIFEKGDFSGQMYETTTDCPSIMEQFHMREIHSCKVLEGVWIFYELPNYRGRQYLLDKKEYRKPIDWGAASPAVQSFRRI [E18T] | -0.046 ± 0.085
IQIFEKGDFSGQMYETTADCPSIMEQFHMREIHSCKVLEGVWIFYELPNYRGRQYLLDKKEYRKPIDWGAASPAVQSFRRI [E18A] | -0.087 ± 0.061
IQIFEKGDFSGQMYETTDDCPSIMEQFHMREIHSCKVLEGVWIFYELPNYRGRQYLLDKKEYRKPIDWGAASPAVQSFRRI [E18D] | -0.153 ± 0.16
IQIFEKGDFSGQMYETTVDCPSIMEQFHMREIHSCKVLEGVWIFYELPNYRGRQYLLDKKEYRKPIDWGAASPAVQSFRRI [E18V] | 0.002 ± 0.049
IQIFEKGDFSGQMYETTGDCPSIMEQFHMREIHSCKVLEGVWIFYELPNYRGRQYLLDKKEYRKPIDWGAASPAVQSFRRI [E18G] | 0.038 ± 0.039
IQIFEKGDFSGQMYETTRDCPSIMEQFHMREIHSCKVLEGVWIFYELPNYRGRQYLLDKKEYRKPIDWGAASPAVQSFRRI [E18R] | -0.028 ± 0.044
IQIFEKGDFSGQMYETTCDCPSIMEQFHMREIHSCKVLEGVWIFYELPNYRGRQYLLDKKEYRKPIDWGAASPAVQSFRRI [E18C] | 0.006 ± 0.17
IQIFEKGDFSGQMYETTSDCPSIMEQFHMREIHSCKVLEGVWIFYELPNYRGRQYLLDKKEYRKPIDWGAASPAVQSFRRI [E18S] | 0.016 ± 0.054
IQIFEKGDFSGQMYETTIDCPSIMEQFHMREIHSCKVLEGVWIFYELPNYRGRQYLLDKKEYRKPIDWGAASPAVQSFRRI [E18I] | 0.079 ± 0.15
IQIFEKGDFSGQMYETTLDCPSIMEQFHMREIHSCKVLEGVWIFYELPNYRGRQYLLDKKEYRKPIDWGAASPAVQSFRRI [E18L] | -0.021 ± 0.064
IQIFEKGDFSGQMYETTMDCPSIMEQFHMREIHSCKVLEGVWIFYELPNYRGRQYLLDKKEYRKPIDWGAASPAVQSFRRI [E18M] | -0.066 ± 0.12
IQIFEKGDFSGQMYETTYDCPSIMEQFHMREIHSCKVLEGVWIFYELPNYRGRQYLLDKKEYRKPIDWGAASPAVQSFRRI [E18Y] | -0.032 ± 0.13
IQIFEKGDFSGQMYETTPDCPSIMEQFHMREIHSCKVLEGVWIFYELPNYRGRQYLLDKKEYRKPIDWGAASPAVQSFRRI [E18P] | -0.067 ± 0.087
IQIFEKGDFSGQMYETTNDCPSIMEQFHMREIHSCKVLEGVWIFYELPNYRGRQYLLDKKEYRKPIDWGAASPAVQSFRRI [E18N] | 0.072 ± 0.13
IQIFEKGDFSGQMYETTHDCPSIMEQFHMREIHSCKVLEGVWIFYELPNYRGRQYLLDKKEYRKPIDWGAASPAVQSFRRI [E18H] | -0.039 ± 0.27
IQIFEKGDFSGQMYETTWDCPSIMEQFHMREIHSCKVLEGVWIFYELPNYRGRQYLLDKKEYRKPIDWGAASPAVQSFRRI [E18W] | 0.014 ± 0.074
